Test results as given in the supplement of paper PMC10567573.
± gives the standard deviation.

Assay: protein stability index of a GFP-peptide fusion (GPS, HEK-293T) (PSI 1-6); higher = more stable
[1] = treatment: DMSO, c terminus: a fixed tail appended
[2] = treatment: MLN4924 1 uM, 8 h, c terminus: a fixed tail appended
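Further: 24-mer peptide tiles fused after GFP, lentivirally expressed, FACS-sorted into six equal bins by GFP/DsRed ratio, decoded by Illumina sequencing, PSI is the read-weighted mean bin number.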

LNLDIGQVYKETRLFLDGEEEKEW [AASDHPPT]
protein stability index [1]: 3.95 ± 0.43
protein stability index [2]: 4.09 ± 0.44

LNLTRKLAQQLCTALLFLATPELS [DYRK1B]
protein stability index [1]: 2.9 ± 0.51
protein stability index [2]: 3.21 ± 0.47

LPDSPLRFDGLPAVLGFPGFSSGR [TRIM15]
protein stability index [1]: 2.87 ± 0.39
protein stability index [2]: 3.18 ± 0.41

LPNYNWNSFGLRFGKREAAPGNHG [KISS1]
protein stability index [1]: 3.14 ± 0.36
protein stability index [2]: 3.36 ± 0.42

LPQDEGGGGYSSVRYSDCCERVVI [KCNA4]
protein stability index [1]: 2.41 ± 0.3
protein stability index [2]: 2.77 ± 0.53

LPRKESPSVRSSKDGKLLAATLLL [TNFSF13B]
protein stability index [1]: 2.26 ± 0.21
protein stability index [2]: 2.18 ± 0.22

LQEVPTGLDSISHDSANCELPLLT [ETS2]
protein stability index [1]: 4.71 ± 0.12
protein stability index [2]: 4.92 ± 0.42

LQLGEGVEFDVLPAFDALGQLTGG [OAS1]
protein stability index [1]: 2.37 ± 0.35
protein stability index [2]: 2.72 ± 0.51

LQLLHECSPSQMDLLCAQLQLPQL [FANCE]
protein stability index [1]: 2.33 ± 0.27
protein stability index [2]: 2.49 ± 0.11

LRATVERMGLMKANHVFFLLYLLH [FADS1]
protein stability index [1]: 2.35 ± 0.37
protein stability index [2]: 2 ± 0.18

LRKKILKIRHGWEDVTKINKTEIC [STEAP1]
protein stability index [1]: 2.29 ± 0.47
protein stability index [2]: 2.56 ± 0.48

LRPSYTGLSSSSARFLSRSIPSLQ [CDC14A]
protein stability index [1]: 3.04 ± 0.38
protein stability index [2]: 2.85 ± 0.29

LRRTMQELEIELQSQLSMKAGLEN [KRT15]
protein stability index [1]: 2.86 ± 0.22
protein stability index [2]: 3.13 ± 0.38

LRTRGRTRGWVQTLARMSRRTRGP [C6orf223]
protein stability index [1]: 3.6 ± 0.23
protein stability index [2]: 3.97 ± 0.27

LRVEQKDFPAHRIVLAACSDYFCA [KLHL12]
protein stability index [1]: 2 ± 0.44
protein stability index [2]: 2.07 ± 0.29

LRVMETKPDKAVSIIECDMNVDFD [UFD1]
protein stability index [1]: 3.57 ± 0.43
protein stability index [2]: 3.53 ± 0.28

LSEGSSNEDEDLGPCEGPSKEDKD [SPANXN3]
protein stability index [1]: 5.71 ± 0.31
protein stability index [2]: 5.37 ± 0.41

LSEVLAQPQGALAPPNCESDSKTG [DNAAF3]
protein stability index [1]: 5.37 ± 0.14
protein stability index [2]: 5.52 ± 0.096

LSHLLGDAGSPYLIGLISDRLRRN [SPNS1]
protein stability index [1]: 2.18 ± 0.36
protein stability index [2]: 2.16 ± 0.39

LSIYVGCDKYPHESQLPEEWENNR [CPXM2]
protein stability index [1]: 2.98 ± 0.13
protein stability index [2]: 3.25 ± 0.4

LSLLGAVGLAAVNSMPVDNRNHNE [CHGB]
protein stability index [1]: 3.35 ± 0.2
protein stability index [2]: 3.54 ± 0.5

LSLTSSASRLLTTALTSFCAKYTY [FANCE]
protein stability index [1]: 2.72 ± 0.48
protein stability index [2]: 2.81 ± 0.67

LSPMTASSFLSFAELFSYVLQDRA [FEM1A]
protein stability index [1]: 2.47 ± 0.39
protein stability index [2]: 2.26 ± 0.13

LSRLQRVKFCLLGALLAPIRVLLA [LPCAT4]
protein stability index [1]: 3.67 ± 0.42
protein stability index [2]: 3.58 ± 0.14

LSSEVLVGDLMSPFDQSGLGAEES [ATF4]
protein stability index [1]: 5 ± 0.48
protein stability index [2]: 4.84 ± 0.18

LSTAASLGPSGLQNHGQHLILSRE [LCOR]
protein stability index [1]: 3.99 ± 0.38
protein stability index [2]: 3.96 ± 0.16

LSTADGKAFADPEVLRRLTSSVSC [ANKRD17]
protein stability index [1]: 3.55 ± 0.17
protein stability index [2]: 3.69 ± 0.29

LTKAATSGVGIDGEVLSYLELAQF [RHOBTB1]
protein stability index [1]: 2.44 ± 0.18
protein stability index [2]: 2.47 ± 0.43

LVEHYKKAPIFTSEHGEKLYLVRA [NCK2]
protein stability index [1]: 2.28 ± 0.21
protein stability index [2]: 2.42 ± 0.24

LVNMGISVVSYTLKDIHDDQDYLH [FLOT1]
protein stability index [1]: 2.11 ± 0.24
protein stability index [2]: 2.22 ± 0.31

LVVFTASMEIYGSAVADKLDNSRS [CTDNEP1]
protein stability index [1]: 2.92 ± 0.74
protein stability index [2]: 2.26 ± 0.37

LWCANILGYAVSTFAMVKGYFFPT [DHCR7]
protein stability index [1]: 4.05 ± 0.23
protein stability index [2]: 3.83 ± 0.12

LWFANAHLLSWFSPTIIFDNWIPL [DHCR7]
protein stability index [1]: 2.92 ± 0.33
protein stability index [2]: 2.93 ± 0.16

LWIKFFAAGELESMGFSARYNFTP [NETO1]
protein stability index [1]: 2.63 ± 0.85
protein stability index [2]: 2.58 ± 0.89

LWLRPEVHTKEQILELLVLEQFLA [ZNF396]
protein stability index [1]: 2.54 ± 0.5
protein stability index [2]: 2.73 ± 0.49

LYFKDKIFNVAIPRFHMACPTFRV [FBXO3]
protein stability index [1]: 2.98 ± 0.92
protein stability index [2]: 2.65 ± 0.68

LYGALNPQYEFKEAAGSFTSSLAQ [IRX6]
protein stability index [1]: 2.64 ± 0.17
protein stability index [2]: 2.55 ± 0.27

LYPDLSCPEGLEELLSAPPPDLGA [SPSB2]
protein stability index [1]: 4.27 ± 0.14
protein stability index [2]: 4.46 ± 0.12

MAGTGLLALRTLPGPSWVRGSGPS [ALKBH7]
protein stability index [1]: 2.68 ± 0.19
protein stability index [2]: 2.88 ± 0.11

MAKTLVFSKVKTSLGLDHCHSFIS [ACSBG2]
protein stability index [1]: 2.18 ± 0.58
protein stability index [2]: 1.82 ± 0.52

MALSNHYRSEDLLDVDTAAGGFQQ [FBXO3]
protein stability index [1]: 4.03 ± 0.18
protein stability index [2]: 4.04 ± 0.13

MCLSPDRKMEVEELSPLALGRFSL [CDC25B]
protein stability index [1]: 2.57 ± 0.19
protein stability index [2]: 2.71 ± 0.24

MCYGYGCGCGSFCRLGYGCGYEGC [KRTAP19-2]
protein stability index [1]: 2.35 ± 0.23
protein stability index [2]: 2.43 ± 0.54

MDDERYFNEMSAQGLRPRTVSSPI [CCDC6]
protein stability index [1]: 4.28 ± 0.29
protein stability index [2]: 4.16 ± 0.14

MDSRTVFGAWRCLLDATVAGGQTR [FCHSD1]
protein stability index [1]: 1.92 ± 0.4
protein stability index [2]: 2.01 ± 0.33

MECPEGQLPISSENDSTPTVSTSE [TAF7L]
protein stability index [1]: 5.46 ± 0.12
protein stability index [2]: 5.59 ± 0.25

METNGSTEGSRSRSRSLDIQPSSE [SPAG8]
protein stability index [1]: 5.54 ± 0.33
protein stability index [2]: 5.35 ± 0.064

MHLNAEGMLSYCDRYSEGIKHVLQ [CRYL1]
protein stability index [1]: 2.4 ± 0.29
protein stability index [2]: 2.32 ± 0.42

MISAAQLLDELMGRDRNLAPDEKR [LUC7L3]
protein stability index [1]: 3.87 ± 0.19
protein stability index [2]: 4.11 ± 0.21

MITVPIGLYFTTKSYIFEGALGMS [VMA21]
protein stability index [1]: 2.49 ± 0.7
protein stability index [2]: 2.89 ± 0.43

MLKEEHQIILENQKNFGLYVQEKR [RAD54B]
protein stability index [1]: 2.99 ± 0.24
protein stability index [2]: 3.62 ± 0.29

MLLRKFAESKGTGREKPGPLDFEA [FCHO1]
protein stability index [1]: 2.84 ± 0.034
protein stability index [2]: 2.86 ± 0.5

MMEEIDRFQDPAAASISDGDCDAR [FAM219A]
protein stability index [1]: 5.38 ± 0.16
protein stability index [2]: 5.42 ± 0.11

MNALLEQKEQQERLREAAALGDIR [ANKRD40]
protein stability index [1]: 4.66 ± 0.24
protein stability index [2]: 4.76 ± 0.18

MPEYRGQGIGSKIIKKVAEVALDK [SAT2]
protein stability index [1]: 3.65 ± 0.35
protein stability index [2]: 4.05 ± 0.27

MQPESGANGTVIAEFILLGLLEAP [OR3A1]
protein stability index [1]: 2.18 ± 0.24
protein stability index [2]: 2.33 ± 0.42

MSDLLSVFLHLLLLFKLVAPVTFR [CPN1]
protein stability index [1]: 3.09 ± 0.26
protein stability index [2]: 3.33 ± 0.17

MSFLSRQQPPPPRRAGAACTLRQK [WEE1]
protein stability index [1]: 3.94 ± 0.2
protein stability index [2]: 3.88 ± 0.24

MSMNNSKQLVSPAAALLSNTTCQT [PTGFR]
protein stability index [1]: 3.79 ± 0.21
protein stability index [2]: 3.99 ± 0.12

MSSIICEGDTVSQELLDTVLVNLV [PDS5B]
protein stability index [1]: 2.24 ± 0.22
protein stability index [2]: 2.14 ± 0.53

MTEWFMCAFSRTLPWSSVLRVWDM [TBC1D10A]
protein stability index [1]: 3.32 ± 0.42
protein stability index [2]: 2.84 ± 0.23

MTSNPITWGQIKKTTQEAEKLLER [CDK11A]
protein stability index [1]: 4.55 ± 0.24
protein stability index [2]: 4.31 ± 0.25

MVFEVLGHHLLKWIIKSNYQGLPV [SRPK2]
protein stability index [1]: 2.91 ± 0.33
protein stability index [2]: 3.12 ± 0.27

MVFIAGILLNGVSGWIFFYVPSSE [P2RY14]
protein stability index [1]: 2.94 ± 0.34
protein stability index [2]: 2.84 ± 0.51

MVWNQNGKSPSITFEYTLLQPPHE [ADAMTSL2]
protein stability index [1]: 2.23 ± 0.27
protein stability index [2]: 2.64 ± 0.37

NAININELFIEISRRIPSTDANLP [RAB22A]
protein stability index [1]: 2.35 ± 0.18
protein stability index [2]: 2.18 ± 0.45

NASTLRTINIKCHVHDPHGQVIWG [FBXO39]
protein stability index [1]: 2.17 ± 0.18
protein stability index [2]: 2.21 ± 0.21

NCPWPMSCPGSSYRTVVRPTYKVM [EMID1]
protein stability index [1]: 2.62 ± 0.26
protein stability index [2]: 2.47 ± 0.4

NDPSQSEVMGEPHLMVEYKLGLL [POMP]
protein stability index (treatment: DMSO, c terminus: native): 4.16 ± 0.22
protein stability index (treatment: MLN4924 1 uM, 8 h, c terminus: native): 4.36 ± 0.21

NERKVAQLAEENERLKQEIERLTR [DDIT3]
protein stability index [1]: 5.1 ± 0.37
protein stability index [2]: 5.18 ± 0.3

NESHSIKAILKNISVLAFSVCFIF [SLC29A1]
protein stability index [1]: 2.79 ± 0.61
protein stability index [2]: 2.54 ± 0.4

NEVIADINCKGRSKSNLGWTPLHL [OSBPL1A]
protein stability index [1]: 2.48 ± 0.38
protein stability index [2]: 2.76 ± 0.28

NFKPRGYSECIVTVGGEERVSRKP [GAN]
protein stability index [1]: 4.14 ± 0.28
protein stability index [2]: 4.32 ± 0.39

NGHDCWSLISLSNNTGKNLELKFV [TENT5D]
protein stability index [1]: 2.51 ± 0.49
protein stability index [2]: 2.61 ± 1

NGINLFDTAEVYAAGKAEVVLGNI [KCNAB2]
protein stability index [1]: 2.89 ± 0.3
protein stability index [2]: 3 ± 0.3

NGQLMAVGGFDGTTYLKTIEVFDP [KLHL20]
protein stability index [1]: 2.93 ± 0.072
protein stability index [2]: 2.91 ± 0.45

NGSDPRSFPLWYEEALKDEEERAQ [MAGEA10]
protein stability index [1]: 5.34 ± 0.36
protein stability index [2]: 5.42 ± 0.2

NHILECEFYLLELMDCCLIVYHPY [CCNC]
protein stability index [1]: 3.12 ± 1
protein stability index [2]: 2.78 ± 0.95

NISDLPFLAENSAFPKMALQAKQD [LCOR]
protein stability index [1]: 4.42 ± 0.2
protein stability index [2]: 4.39 ± 0.2

NIVFGTGPRVGEALVSHPEVPLIS [ALDH8A1]
protein stability index [1]: 2.9 ± 0.21
protein stability index [2]: 2.83 ± 0.27

NIWVCYASYVVFRIIYMLLITIAT [SLC19A2]
protein stability index [1]: 3.41 ± 0.35
protein stability index [2]: 3.14 ± 0.88

NKLWELCCQWLKPKMRSKEQILEL [ZNF449]
protein stability index [1]: 2.62 ± 0.35
protein stability index [2]: 2.9 ± 0.56

NKRERSKLKNLRRKQRRRERWLQK [RNF180]
protein stability index [1]: 4.32 ± 0.24
protein stability index [2]: 4.49 ± 0.38

NKTKPIWTRNPDDITQEEYGEFYK [HSP90AB1]
protein stability index [1]: 4.36 ± 0.42
protein stability index [2]: 4.49 ± 0.44

NKVKVLDAPVPDCLGVHCDFHQGL [FSD1]
protein stability index [1]: 3.26 ± 0.078
protein stability index [2]: 3.43 ± 0.24

NLASYDVCSILLGTSTLLVWVGVI [MCOLN1]
protein stability index [1]: 3.08 ± 0.6
protein stability index [2]: 3.19 ± 0.7

NLLGEAAGGQDMADSMLMQGSRGL [HDAC6]
protein stability index [1]: 4.1 ± 0.34
protein stability index [2]: 4.09 ± 0.081

NLSKSRKILRSMSRKVTTNKLLLS [VTI1B]
protein stability index [1]: 2.85 ± 0.35
protein stability index [2]: 2.92 ± 0.29
